Results reported in patent publication US20250262210A1 (TRUSTEES OF COLUMBIA UNIVERSITY IN THE CITY OF NEW YORK, published 2025).

Columns and labels:
Test in all cases: IP/MS, LZTR1 wild type-FLAG, U87
RPAP1 = molecular target: T1, RPAP1 (human, UniProt Q9BWH6 1-1393, limits assumed)
T1 sequence (looked up): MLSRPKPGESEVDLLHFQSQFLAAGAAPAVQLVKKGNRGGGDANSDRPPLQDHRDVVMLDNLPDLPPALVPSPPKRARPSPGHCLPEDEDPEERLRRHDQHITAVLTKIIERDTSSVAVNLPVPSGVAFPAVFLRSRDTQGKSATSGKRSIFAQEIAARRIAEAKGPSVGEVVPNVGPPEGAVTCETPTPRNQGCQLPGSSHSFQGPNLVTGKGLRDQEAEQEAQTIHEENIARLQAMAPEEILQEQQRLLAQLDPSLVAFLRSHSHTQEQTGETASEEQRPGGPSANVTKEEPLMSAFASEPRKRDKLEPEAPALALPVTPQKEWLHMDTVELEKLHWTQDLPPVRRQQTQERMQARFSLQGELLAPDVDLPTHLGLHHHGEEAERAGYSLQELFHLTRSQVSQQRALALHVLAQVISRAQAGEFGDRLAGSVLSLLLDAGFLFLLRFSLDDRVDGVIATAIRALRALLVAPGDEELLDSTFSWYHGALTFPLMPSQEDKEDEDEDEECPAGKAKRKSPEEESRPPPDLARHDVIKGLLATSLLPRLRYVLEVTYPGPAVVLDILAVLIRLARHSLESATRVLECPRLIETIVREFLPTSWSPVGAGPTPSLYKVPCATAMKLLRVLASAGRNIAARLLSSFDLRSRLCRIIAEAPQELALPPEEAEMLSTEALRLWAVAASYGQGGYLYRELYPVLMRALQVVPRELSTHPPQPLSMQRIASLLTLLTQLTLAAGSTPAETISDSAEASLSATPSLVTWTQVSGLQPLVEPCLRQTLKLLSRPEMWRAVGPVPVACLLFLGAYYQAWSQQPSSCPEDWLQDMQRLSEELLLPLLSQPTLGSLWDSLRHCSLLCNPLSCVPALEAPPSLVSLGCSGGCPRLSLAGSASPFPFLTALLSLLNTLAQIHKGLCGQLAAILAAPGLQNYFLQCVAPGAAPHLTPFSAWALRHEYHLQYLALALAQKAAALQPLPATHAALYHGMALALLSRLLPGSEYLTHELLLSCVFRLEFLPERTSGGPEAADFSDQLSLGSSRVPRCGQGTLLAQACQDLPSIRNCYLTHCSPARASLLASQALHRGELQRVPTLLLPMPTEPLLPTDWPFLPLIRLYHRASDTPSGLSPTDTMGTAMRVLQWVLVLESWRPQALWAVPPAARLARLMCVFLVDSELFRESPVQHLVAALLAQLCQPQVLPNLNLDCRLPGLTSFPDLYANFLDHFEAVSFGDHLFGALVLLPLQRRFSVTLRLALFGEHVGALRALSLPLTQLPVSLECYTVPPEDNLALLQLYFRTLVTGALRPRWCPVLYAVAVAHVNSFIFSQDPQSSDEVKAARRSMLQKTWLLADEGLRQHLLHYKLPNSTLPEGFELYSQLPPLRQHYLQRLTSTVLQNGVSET
Procedure, shortened: (§1)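 Gel slices were reduced with 5 mM DTT, alkylated with 11 mM IAA and digested overnight at 37° C. with trypsin. Peptides were analysed on an Orbitrap Fusion Tribrid by LC-MS/MS.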

CDC42BPB = CDC42BPB (human, UniProt Q9Y5S2 1-1711)
Sequence of CDC42BPB (Q9Y5S2 whole entry): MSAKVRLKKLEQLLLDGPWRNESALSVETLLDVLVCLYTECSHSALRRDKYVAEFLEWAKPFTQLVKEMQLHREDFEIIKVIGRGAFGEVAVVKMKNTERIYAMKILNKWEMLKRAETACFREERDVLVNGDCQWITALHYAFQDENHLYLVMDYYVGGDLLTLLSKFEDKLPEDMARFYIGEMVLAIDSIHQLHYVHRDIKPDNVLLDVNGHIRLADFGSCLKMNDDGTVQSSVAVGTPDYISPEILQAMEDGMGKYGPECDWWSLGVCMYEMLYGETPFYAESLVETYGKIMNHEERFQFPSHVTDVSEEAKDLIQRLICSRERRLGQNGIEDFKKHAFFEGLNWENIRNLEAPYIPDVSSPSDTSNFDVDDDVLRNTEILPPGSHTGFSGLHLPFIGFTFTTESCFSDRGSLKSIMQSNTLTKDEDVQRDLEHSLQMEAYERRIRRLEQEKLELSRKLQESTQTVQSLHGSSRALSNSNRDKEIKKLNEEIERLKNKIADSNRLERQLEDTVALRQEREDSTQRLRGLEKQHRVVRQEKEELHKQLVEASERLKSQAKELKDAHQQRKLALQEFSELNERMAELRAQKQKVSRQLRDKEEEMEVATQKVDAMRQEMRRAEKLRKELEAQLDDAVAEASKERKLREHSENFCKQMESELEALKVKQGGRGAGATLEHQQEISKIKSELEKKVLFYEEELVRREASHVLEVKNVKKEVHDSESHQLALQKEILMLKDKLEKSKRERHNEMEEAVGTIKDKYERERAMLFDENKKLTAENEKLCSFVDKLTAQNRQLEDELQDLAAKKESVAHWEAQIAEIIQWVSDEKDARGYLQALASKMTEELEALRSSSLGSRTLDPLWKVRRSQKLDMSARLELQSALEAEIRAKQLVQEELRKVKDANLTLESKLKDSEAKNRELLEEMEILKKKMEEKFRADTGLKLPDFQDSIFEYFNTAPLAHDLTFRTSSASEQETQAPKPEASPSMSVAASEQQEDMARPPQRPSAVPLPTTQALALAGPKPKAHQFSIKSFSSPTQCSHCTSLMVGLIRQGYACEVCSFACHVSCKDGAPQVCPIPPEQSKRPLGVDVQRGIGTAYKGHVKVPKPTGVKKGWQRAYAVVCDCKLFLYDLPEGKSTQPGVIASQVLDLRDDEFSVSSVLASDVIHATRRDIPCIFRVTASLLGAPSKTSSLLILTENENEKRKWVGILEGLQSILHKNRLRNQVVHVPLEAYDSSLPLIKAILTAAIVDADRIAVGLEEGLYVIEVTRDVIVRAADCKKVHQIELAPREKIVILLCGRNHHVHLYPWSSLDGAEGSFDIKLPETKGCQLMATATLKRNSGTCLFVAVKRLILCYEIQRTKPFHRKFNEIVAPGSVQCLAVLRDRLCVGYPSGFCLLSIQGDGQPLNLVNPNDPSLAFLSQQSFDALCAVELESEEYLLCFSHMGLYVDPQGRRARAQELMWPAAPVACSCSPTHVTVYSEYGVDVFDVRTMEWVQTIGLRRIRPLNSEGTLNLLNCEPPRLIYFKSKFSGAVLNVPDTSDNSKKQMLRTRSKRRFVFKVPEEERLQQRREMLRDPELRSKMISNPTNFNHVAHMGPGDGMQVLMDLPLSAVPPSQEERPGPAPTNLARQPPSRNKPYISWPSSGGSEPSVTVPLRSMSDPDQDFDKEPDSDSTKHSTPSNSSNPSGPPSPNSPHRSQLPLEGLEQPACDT
Procedure, shortened: as §1

EIF2AK4 = EIF2AK4 (human, UniProt Q9P2K8 1-1649, limits assumed)
Sequence of EIF2AK4 (Q9P2K8 whole entry): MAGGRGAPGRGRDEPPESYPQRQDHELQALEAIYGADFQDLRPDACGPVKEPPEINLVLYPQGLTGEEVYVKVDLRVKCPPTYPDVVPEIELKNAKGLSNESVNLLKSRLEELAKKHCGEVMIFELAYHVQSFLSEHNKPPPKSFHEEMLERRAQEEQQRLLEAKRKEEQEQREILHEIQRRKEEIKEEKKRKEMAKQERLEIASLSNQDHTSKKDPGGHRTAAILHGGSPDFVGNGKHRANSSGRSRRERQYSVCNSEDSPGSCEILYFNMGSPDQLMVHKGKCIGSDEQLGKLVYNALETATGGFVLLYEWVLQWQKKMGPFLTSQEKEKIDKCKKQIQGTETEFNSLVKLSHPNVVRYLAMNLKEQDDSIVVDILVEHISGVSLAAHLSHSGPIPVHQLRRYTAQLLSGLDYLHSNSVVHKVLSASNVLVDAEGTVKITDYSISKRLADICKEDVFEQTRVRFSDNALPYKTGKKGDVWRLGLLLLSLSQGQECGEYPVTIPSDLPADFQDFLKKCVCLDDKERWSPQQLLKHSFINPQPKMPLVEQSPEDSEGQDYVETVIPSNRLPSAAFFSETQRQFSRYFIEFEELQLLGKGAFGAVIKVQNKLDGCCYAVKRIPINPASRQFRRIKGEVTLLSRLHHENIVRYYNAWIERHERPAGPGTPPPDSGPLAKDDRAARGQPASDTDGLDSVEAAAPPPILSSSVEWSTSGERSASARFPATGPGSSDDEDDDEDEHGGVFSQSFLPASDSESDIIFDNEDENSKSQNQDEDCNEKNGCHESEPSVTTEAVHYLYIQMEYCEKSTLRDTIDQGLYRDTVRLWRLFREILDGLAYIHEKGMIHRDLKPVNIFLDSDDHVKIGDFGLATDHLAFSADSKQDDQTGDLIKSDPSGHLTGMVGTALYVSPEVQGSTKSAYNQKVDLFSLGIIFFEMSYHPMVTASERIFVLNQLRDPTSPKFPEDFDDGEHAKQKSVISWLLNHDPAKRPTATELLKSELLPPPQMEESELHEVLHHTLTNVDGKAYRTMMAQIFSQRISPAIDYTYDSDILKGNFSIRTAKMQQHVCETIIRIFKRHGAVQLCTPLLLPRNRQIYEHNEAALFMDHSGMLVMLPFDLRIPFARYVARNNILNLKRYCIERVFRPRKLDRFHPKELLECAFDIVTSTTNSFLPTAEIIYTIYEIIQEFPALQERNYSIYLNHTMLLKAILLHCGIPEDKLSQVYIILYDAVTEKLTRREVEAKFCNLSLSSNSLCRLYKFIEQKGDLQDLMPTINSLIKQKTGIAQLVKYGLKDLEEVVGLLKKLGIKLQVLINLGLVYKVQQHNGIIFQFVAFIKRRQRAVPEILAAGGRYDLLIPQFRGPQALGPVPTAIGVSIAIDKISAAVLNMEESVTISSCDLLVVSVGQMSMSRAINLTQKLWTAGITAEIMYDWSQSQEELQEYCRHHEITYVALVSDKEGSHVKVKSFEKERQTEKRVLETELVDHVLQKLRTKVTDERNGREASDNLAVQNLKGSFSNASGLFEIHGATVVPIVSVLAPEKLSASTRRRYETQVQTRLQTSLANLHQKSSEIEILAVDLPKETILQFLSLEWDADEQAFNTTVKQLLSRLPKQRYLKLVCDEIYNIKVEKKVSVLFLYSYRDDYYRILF
Procedure, shortened: as §1

Measured: binding result

B1: LZTR1-FLAG (other, human, UniProt Q8N653 1-840, looked up)
chain: MAGPGSTGGQIGAAALAGGARSKVAPSVDFDHSCSDSVEYLTLNFGPFETVHRWRRLPPCDEFVGARRSKHTVVAYKDAIYVFGGDNGKTMLNDLLRFDVKDCSWCRAFTTGTPPAPRYHHSAVVYGSSMFVFGGYTGDIYSNSNLKNKNDLFEYKFATGQWTEWKIEGRLPVARSAHGATVYSDKLWIFAGYDGNARLNDMWTIGLQDRELTCWEEVAQSGEIPPSCCNFPVAVCRDKMFVFSGQSGAKITNNLFQFEFKDKTWTRIPTEHLLRGSPPPPQRRYGHTMVAFDRHLYVFGGAADNTLPNELHCYDVDFQTWEVVQPSSDSEVGGAEVPERACASEEVPTLTYEERVGFKKSRDVFGLDFGTTSAKQPTQPASELPSGRLFHAAAVISDAMYIFGGTVDNNIRSGEMYRFQFSCYPKCTLHEDYGRLWESRQFCDVEFVLGEKEECVQGHVAIVTARSRWLRRKITQARERLAQKLEQEAAPVPREAPGVAAGGARPPLLHVAIREAEARPFEVLMQFLYTDKIKYPRKGHVEDVLLIMDVYKLALSFQLCRLEQLCRQYIEASVDLQNVLVVCESAARLQLSQLKEHCLNFVVKESHFNQVIMMKEFERLSSPLIVEIVRRKQQPPPRTPLDQPVDIGTSLIQDMKAYLEGAGAEFCDITLLLDGHPRPAHKAILAARSSYFEAMFRSFMPEDGQVNISIGEMVPSRQAFESMLRYIYYGEVNMPPEDSLYLFAAPYYYGFYNNRLQAYCKQNLEMNVTVQNVLQILEAADKTQALDMKRHCLHIIVHQFTKVSKLPTLRSLSQQLLLDIIDSLASHISDKQCAELGADI
notes: Expressed in HEK 293T, HeLa or U87 cells; used as cell lysate; also called LZTR1 wild type-FLAG; LZTR1 WT; not shown: FLAG tag at the C-terminus
binds: RPAP1 | CDC42BPB | EIF2AK4
